Measured values from article PMC11058820.

Target: HLA-A*11:01 monomer (commercial, biotinylated, preloaded with a UV-sensitive peptide that is destroyed by UV) (human)
Assay: ELISA; UV-mediated peptide exchange: 25 μM peptide in PBS mixed 1:1 with […] biotinylated UV-sensitive HLA-A*11:01 monomer on ice, 366 nm UV 30 min; stable monomers captured on streptavidin plates and detected with HRP anti-human β2-microglobulin; result as percentage of positive signal against positive and negative control peptides

percentage of positive signal: 46.6%
Binder: VVGAGGVGK [KRAS_(8–16)^WT peptide]
